Experimental data taken from patent US20210032294A1, “MODIFIED PlySs2 LYSINS AND USES THEREOF” (CONTRAFECT CORPORATION, priority 2018, published 2021).

Key:
bacterial inoculum = test: Thermal stability: in vitro lytic assay after 30 min heating; format: cell-based
Protocol: Thermal stability was assessed by incubating the lysin polypeptides at a fixed concentration of 128 μg/mL in Tris buffer pH 8.0 for 30 minutes at various elevated temperatures (within the range of about 30° C. to 60° C.) prior to assessing activity. The samples were then cooled for 2 minutes on ice and activity was then assessed by an in vitro lytic assay by exposing a bacterial inoculum (OD600 ˜0.5-1.2) in Tris buffer to a 2-fold dilution series of each sample (diluted from 128-0.25 μg/mL across the x-axis of a 96 well microtiter plate). The loss of optical density was followed for 15 minute at room temperature, and the specific activity was determined based on the enzyme concentration enabling a 50% loss of optical density at 15 minutes. The enzyme activities of each variant were compared to the wild-type, CF-301 enzyme (GMT-grade PlySs2 protein) to calculate the % of Wild-Type Activity over a range of temperatures.
The thermal stability of wild-type, CF-301 was arbitrarily set at 100. The results for exemplary modified lysin polypeptides are set forth below in Table 5 at a single temperature of 37° C.:
In another experiment, the thermal stability of modified lysin polypeptides was assessed at different temperatures and compared with that of wild-type, CF-301 (set at 100).

[1] = system: 1-day old biofilms formed by MRSA isolates; test: Minimum Biofilm Eradication Concentration (MBEC), MRSA biofilms; format: cell-based, Staphylococcus aureus; details: 24 hours treatment
Protocol: In some embodiments, the present modified lysin polypeptides are capable of reducing a biofilm. […] Biofilms are then washed and treated with e.g., a 2-fold dilution series of the lysin in TSBg at e.g., 37° C. for 24 hours. After treatment, wells are washed, air-dried at e.g., 37° C. and stained with e.g., 0.05% crystal violet for 10 minutes. After staining, the biofilms are destained in e.g., 33% acetic acid and the OD600 of e.g., extracted crystal violet is determined. The MBEC of each sample is the minimum lysin concentration required to remove >95% of the biofilm biomass assessed by crystal violet quantitation.
The anti-biofilm activity of pp296 was determined against 1-day old biofilms formed by 17 MSSA and 20 MRSA isolates in a 96-well broth microdilution format. The Minimum Biofilm Eradication Concentration (MBEC) values for pp296, compared to wild-type PlySs2 (CF-301), were determined by the following standard methodology. Bacteria were suspended in PBS (0.5 McFarland Units), diluted 1:100 in TSBg (66% tryptic soy broth, 0.2% glucose), added as 0.15 mL aliquots to 96-well polystyrene microplates, and incubated for 24 hours at 37° C. Biofilms were then washed and treated with a 2-fold dilution series of CF-301 or pp296 in TSBg at 37° C. for 24 hours. All samples were examined in triplicate. After treatment, wells were washed, air-dried at 37° C., and stained with 0.05% crystal violet for 10 min The loss of biofilm biomass was assessed visually, and crystal violet was quantitated by solubilization in 33% (vol/vol) acetic acid. The optical density of 600 nm (OD600) was determined using a SpectraMax M3 Multimode microplate reader. The MBEC of each sample was the minimum lysin concentration required to remove >95% of the biofilm biomass assessed by crystal violet quantitation.

B1: pp296: Modified PlySs2 lysin, SEQ ID NO: 6: L92W, V104S, V128T, Y137S, Y164K, N184D, S198Q (protein)
chain: MTTVNEALNNVRAQVGSGVSVGNGECYALASWYERMISPDATVGLGAGVGWVSGAIGDTISAKNIGSSYNWQANGWTVSTSGPFKAGQIVTWGATPGNPYGHVSIVEAVDGDRLTILEQNYGGKRYPTRNYYSAASSRQQVVHYITPPGTVAQSAPNLAGSRSKRETGTMTVTVDALNVRRAPDTSGEIVAVYKRGEQFDYDTAIIDVNGYAWVSYIGGSGKRNYVATGATKDGKRFGNAWGTFK
- % Wild-Type Activity at 37° C. (bacterial inoculum; 30 minutes at 37° C., 128 μg/mL in Tris buffer pH 8.0, CF-301 set at 100): 205%
- % of CF-301 wild-type, 37° C. (bacterial inoculum; 30 minutes at 37° C., another experiment): 204.6%
- % of CF-301 wild-type, 40° C. (bacterial inoculum; 30 minutes at 40° C.): 243.1%
- % of CF-301 wild-type, 42° C. (bacterial inoculum; 30 minutes at 42° C.): 141.2%
- % of CF-301 wild-type, 45° C. (bacterial inoculum; 30 minutes at 45° C.): 40.1%
- % of CF-301 wild-type, 48° C. (bacterial inoculum; 30 minutes at 48° C.): 0.0%
- % of CF-301 wild-type, 50° C. (bacterial inoculum; 30 minutes at 50° C.): 0.0%
- MBEC50 [1]: 0.031 µg/mL
- MBEC90 [1]: 0.06 µg/mL
- MBEC Range [1]: 0.01 to 0.25 µg/mL
